# Measured values taken from patent US20200054764A1, “MEDICAL USE OF ANTI-C MET ANTIBODY-CYTOTOXIC DRUG CONJUGATE” (priority 2016, published 2020).
# Tests used:
# [1] = target: human c-Met on MKN45 cells (human) (UniProt P08581); assay: cell-based or functional assay
# [2] = test system: a variety of human tumor cell lines; details: background statement; cited from earlier work
# [3] = target: T1, human c-Met-His (Homo sapiens, UniProt P08581); assay: ELISA binding of c-Met antibody to c-Met antigen; details: hybridoma clones, ELISA, OD450
# T1 construct: His tag (6xHis) (C); made in house; host or cells: 293F cells (Invitrogen, Cat # R790-07); vector pEE6.4; c-Met gene template origene RC217003
# T1 sequence (P08581 with tags, fused parts or gaps limits assumed): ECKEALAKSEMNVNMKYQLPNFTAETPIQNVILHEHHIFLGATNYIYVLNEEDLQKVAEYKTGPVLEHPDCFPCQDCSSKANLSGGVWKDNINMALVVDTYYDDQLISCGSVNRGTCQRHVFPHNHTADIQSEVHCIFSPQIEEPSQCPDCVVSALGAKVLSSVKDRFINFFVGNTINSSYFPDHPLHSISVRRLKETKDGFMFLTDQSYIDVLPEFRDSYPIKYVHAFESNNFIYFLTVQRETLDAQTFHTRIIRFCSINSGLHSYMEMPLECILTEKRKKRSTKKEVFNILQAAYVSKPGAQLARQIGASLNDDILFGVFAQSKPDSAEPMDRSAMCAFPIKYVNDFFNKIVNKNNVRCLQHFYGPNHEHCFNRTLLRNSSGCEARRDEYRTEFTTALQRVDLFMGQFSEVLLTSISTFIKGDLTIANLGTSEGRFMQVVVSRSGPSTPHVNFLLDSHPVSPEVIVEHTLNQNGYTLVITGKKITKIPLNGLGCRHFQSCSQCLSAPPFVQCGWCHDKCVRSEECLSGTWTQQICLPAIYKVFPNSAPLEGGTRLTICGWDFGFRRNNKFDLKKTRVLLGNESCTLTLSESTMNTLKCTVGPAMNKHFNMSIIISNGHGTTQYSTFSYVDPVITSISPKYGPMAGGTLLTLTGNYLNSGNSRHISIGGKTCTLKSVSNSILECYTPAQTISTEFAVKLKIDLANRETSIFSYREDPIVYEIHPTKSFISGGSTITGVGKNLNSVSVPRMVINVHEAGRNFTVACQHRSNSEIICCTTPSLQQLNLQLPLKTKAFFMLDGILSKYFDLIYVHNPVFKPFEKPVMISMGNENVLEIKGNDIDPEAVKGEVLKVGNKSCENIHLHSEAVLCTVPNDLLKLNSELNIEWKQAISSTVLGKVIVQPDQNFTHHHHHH
# Method: This experiment uses enzyme linked immunosorbent assay to detect affinity of c-Met antibody (including supermatant of hybridonma or recombinant expressed monoclonal antibodies) to c-Met antigen in vitro.
# Experimental procedures: Coating buffer (PBS; Hyclone, Cat No.: SH30256.01B) was used to dilute antigen (human c-Met-His, example 1) to 2 μg/mL, which was added to a 96-well microplate at 100 μL/well (Costar 9018, Cat No.:03113024) and incubated overnight at 4° C. […] The plate was read with plate reader at 450 nm.
# Murine anti-human c-Met monoclonal cell lines were obtained by immunizing mice, fusion of spleen cells, and screening of hybridomas. […] After the first booster immunization, mice serum was collected during 7 to 10 days after each booster immunization, and the titer was detected by ELISA (Methods were described in Example 2).
# After immunization, mice with a serum titer higher than 1:10^5 were selected for cell fusion. Mouse B-cells and myeloma cells (SP2/0, ATCC number:CRL-1581™) were prepared respectively in aseptic conditions and counted. […] The next day, positive clones were detected by ELISA (see Methods in Example 2).
# [4] = target: T2, human c-Met ECD his tag (Human c-Met ECD-His) recombinant protein (human, UniProt P08581 25-932); assay: ELISA, plate coated with human c-Met-His at 2 ug/mL
# T2 construct: extracellular domain; It was expressed in 293F cells; Natural c-Met is cleaved into alpha and beta subunits; also called human c-Met-His; not shown: C-terminal His tag
# T2 sequence (P08581 25-932): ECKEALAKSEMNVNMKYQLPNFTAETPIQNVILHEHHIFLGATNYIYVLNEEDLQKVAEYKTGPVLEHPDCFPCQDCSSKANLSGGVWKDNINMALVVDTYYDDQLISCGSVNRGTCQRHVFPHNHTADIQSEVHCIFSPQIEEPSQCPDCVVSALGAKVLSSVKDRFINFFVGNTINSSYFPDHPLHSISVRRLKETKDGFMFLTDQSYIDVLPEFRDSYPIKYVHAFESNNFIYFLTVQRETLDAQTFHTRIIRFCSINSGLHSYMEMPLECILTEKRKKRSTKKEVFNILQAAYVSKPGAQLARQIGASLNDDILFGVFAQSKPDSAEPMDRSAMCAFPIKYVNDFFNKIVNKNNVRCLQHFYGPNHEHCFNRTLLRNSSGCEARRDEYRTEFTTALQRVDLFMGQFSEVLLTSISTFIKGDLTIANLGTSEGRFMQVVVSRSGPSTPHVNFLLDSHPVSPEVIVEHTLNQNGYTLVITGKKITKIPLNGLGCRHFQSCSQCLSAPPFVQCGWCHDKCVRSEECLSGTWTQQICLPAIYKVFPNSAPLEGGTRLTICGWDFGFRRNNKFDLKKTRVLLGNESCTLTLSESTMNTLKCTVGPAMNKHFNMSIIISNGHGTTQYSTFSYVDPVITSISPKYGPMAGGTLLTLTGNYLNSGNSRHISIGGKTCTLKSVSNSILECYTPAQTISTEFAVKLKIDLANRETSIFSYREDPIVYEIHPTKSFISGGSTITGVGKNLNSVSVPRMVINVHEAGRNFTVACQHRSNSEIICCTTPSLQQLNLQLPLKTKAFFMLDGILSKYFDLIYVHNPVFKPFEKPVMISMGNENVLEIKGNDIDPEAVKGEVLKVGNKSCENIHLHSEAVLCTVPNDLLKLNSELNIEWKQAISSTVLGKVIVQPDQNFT
# Chain of human c-Met on MKN45 cells (human) (P08581 25-1390): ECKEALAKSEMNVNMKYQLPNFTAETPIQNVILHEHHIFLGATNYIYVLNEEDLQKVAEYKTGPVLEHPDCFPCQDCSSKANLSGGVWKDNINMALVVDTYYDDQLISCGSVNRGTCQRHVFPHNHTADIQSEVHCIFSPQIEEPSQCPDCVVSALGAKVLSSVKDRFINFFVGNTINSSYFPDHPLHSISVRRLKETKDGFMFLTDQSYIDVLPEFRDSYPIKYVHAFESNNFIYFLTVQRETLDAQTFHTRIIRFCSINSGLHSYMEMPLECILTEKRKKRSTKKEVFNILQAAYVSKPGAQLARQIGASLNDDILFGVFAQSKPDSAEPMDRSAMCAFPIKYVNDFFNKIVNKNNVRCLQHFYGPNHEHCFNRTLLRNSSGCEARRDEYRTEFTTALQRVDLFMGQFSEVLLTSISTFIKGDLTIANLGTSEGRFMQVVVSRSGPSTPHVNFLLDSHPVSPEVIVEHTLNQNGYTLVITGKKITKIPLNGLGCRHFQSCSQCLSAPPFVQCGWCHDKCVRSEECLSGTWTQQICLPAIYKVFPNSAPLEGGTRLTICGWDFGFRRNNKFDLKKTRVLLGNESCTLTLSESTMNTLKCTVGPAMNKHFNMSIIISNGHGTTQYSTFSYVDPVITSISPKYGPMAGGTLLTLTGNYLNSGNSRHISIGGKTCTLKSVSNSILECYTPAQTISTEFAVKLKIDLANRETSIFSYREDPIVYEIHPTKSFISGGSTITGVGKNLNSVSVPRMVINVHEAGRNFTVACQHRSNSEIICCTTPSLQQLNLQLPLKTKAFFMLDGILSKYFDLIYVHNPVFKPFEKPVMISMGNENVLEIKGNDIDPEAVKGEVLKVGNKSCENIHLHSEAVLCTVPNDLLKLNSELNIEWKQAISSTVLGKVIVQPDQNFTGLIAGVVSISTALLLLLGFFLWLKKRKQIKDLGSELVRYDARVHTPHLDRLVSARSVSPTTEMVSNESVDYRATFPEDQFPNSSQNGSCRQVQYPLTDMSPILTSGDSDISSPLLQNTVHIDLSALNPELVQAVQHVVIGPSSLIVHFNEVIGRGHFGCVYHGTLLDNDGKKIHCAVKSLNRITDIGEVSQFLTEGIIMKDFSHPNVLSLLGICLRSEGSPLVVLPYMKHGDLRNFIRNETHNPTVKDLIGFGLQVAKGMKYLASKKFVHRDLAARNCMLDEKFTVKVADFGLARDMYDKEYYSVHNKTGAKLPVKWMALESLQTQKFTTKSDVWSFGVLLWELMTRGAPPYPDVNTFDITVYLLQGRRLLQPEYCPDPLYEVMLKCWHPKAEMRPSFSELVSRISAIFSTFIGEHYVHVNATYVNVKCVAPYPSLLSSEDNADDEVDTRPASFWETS
molecule,measurement,setting,value
hIgG (control) (antibody),endocytosis % (0 h),[1],0%
same,endocytosis % (0.5 h),[1],-0.9%
same,endocytosis % (1 h),[1],-4.4%
same,endocytosis % (2 h),[1],-4.9%
same,endocytosis % (4 h),[1],3.6%
"CC[C@H](C)C([C@@H](CC(=O)N1CCC[C@H]1[C@H](OC)[C@@H](C)C(=O)N[C@H](C)[C@@H](O)c1ccccc1)OC)N(C)C(=O)[C@@H](NC(=O)[C@@H](NC)C(C)C)C(C)C (some centres unmarked) [MMAE, Monomethyl auristatin E]",inhibitory activities against a variety of human tumor cell lines,[2],less than one nanomolar
"Ab-5 (antibody, V domains shown) VH: QVQLKQSGPGLVQPSQSLSITCTVSGFSLPNYGVHWVRQSPGKGLEWLGVIWSGGSTNYAAAFVSRLRISKDNSKSQVFFEMNSLQADDTAVYYCARNHDNPYNYAMDYWGQGTTVTVSS VL: DIVLTQSPGSLAVYLGQRATISCRANKSVSTSTYNYLHWYQQKPGQPPKLLIYLASNLASGVPARFSGSGSGTDFTLNIHPLEEEDAATYYCQHSRDLPPTFGAGTKLELKR",Detection Results (OD450),[3],1.64
"Ab-11 humanized antibody (antibody, human IgG2, kappa, V domains shown, Full-length humanized antibody) VH: QVQLVESGGGVVQPGRSLRLSCAASGFTLPNYGVHWVRQAPGKGLEWLAVIWSGGSTNYAAAFVSRLTISKDNSKNTVYLQMNSLRAEDTAVYYCARNHDNPYNYAMDYWGQGTTVTVSS VL: DIVLTQSPDSLAVSLGERATINCRANKSVSTSTYNYLHWYQQKPGQPPKLLIYLASNLASGVPDRFSGSGSGTDFTLTISSLQAEDVAVYYCQHSRDLPPTFGQGTKLEIKR",EC50,[4],0.2 nM
